From paper PMC9484220

Assays:
[1] = biological target: AQP2 protein (eukaryotic expression, purified; Flag-Mcherry tag excised) (UniProt P41181); test: SPR; BIAcore T200; AQP2 immobilised on CM5 chip by amine coupling (10 mM NaAc, pH 4.0); MIAC peptide injected; HBS-EP buffer; equilibrium Req values of 5 concentrations fitted to 1:1 binding
[2] = biological target: chemosynthetic peptide MIAC labeled by CY5; test: MST; CY5-labeled MIAC with AQP2 protein, incubated 5 min at room temperature, premium-coated capillaries, Monolith NT.115

Kd [1] [µM]	Kd [2] [µM]	Molecule
5.13		chemically synthesized MIAC polypeptide
	6.92	AQP2 protein (eukaryotic expression, purified; Flag-Mcherry tag excised) (natural protein) MWELRSIAFSRAVFAEFLATLLFVFFGLGSALNWPQALPSVLQIAMAFGLGIGTLVQALGHISGAHINPAVTVACLVGCHVSVLRAAFYVAAQLLGAVAGAALLHEITPADIRGDLAVNALSNSTTAGQAVTVELFLTLQLVLCIFASTDERRGENPGTPALSIGFSVALGHLLGIHYTGCSMNPARSLAPAVVTGKFDDHWVFWIGPLVGAILGSLLYNYVLFPPAKSLSERLAVLKGLEPDTDWEEREVRRRQSVELHSPQSLPRGTKA
